Data published in US20230145766A1.

Biological target: IL-2 receptor on the surface of human lymphocytes (T cells, NK cells, Treg cells from PBMC) (human)
Experiment: cell-based or functional assay

CD25-pSTAT5 EC50 (CD8+ CD25- T cells): 0.47 nM
EC50 of pSTAT5, CD4+CD25- T cells: 0.102 nM
EC50 of pSTAT5, CD8+ T cells: 0.00169 µM
EC50 of pSTAT5, NK cells: 24.2 pM
EC50 of pSTAT5, Treg cells: 0.388 pM
Substance: human wild-type IL-2 (rhIL-2, R&D systems, Catalog No. 202-IL) (from UniProt P60568 21-153) (ligand)
